The target of assay [1] is T1, human IL-17A (human, UniProt Q16552 24-155).
T1 construct: Biotinylated in the ELISA; also called hIL-17; Hu IL-17A
Kind of assay: ELISA, captured antibody, serially diluted biotin-IL-17 (Example 1.5.1).
T1 sequence (Q16552 24-155 limits assumed): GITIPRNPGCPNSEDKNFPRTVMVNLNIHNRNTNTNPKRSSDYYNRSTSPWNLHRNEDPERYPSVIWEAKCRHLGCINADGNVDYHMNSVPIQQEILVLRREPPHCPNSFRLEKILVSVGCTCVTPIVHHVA
Description: The following protocol is used to characterize the binding of IL-17 antibodies to human IL-17 by enzyme-linked immunosorbent assay (ELISA). […] 1. Coat ELISA plate with 50 μl per well of Goat anti Mouse IgG-Fc at 2 ug/ml, overnight at 4° C. […] 2. Wash plate 3×PBS/Tween. […] 3. Add 50 μl Mab diluted to 1 μg/ml in PBS/0.1% BSA to appropriate wells. Incubate 1 hr at room temperature (RT). […] 4. Wash plate 3× with PBS/Tween. […] 5. Add 50 μl of serial diluted biotin-IL17 (human IL-17, IL-17A/F, cyno IL-17) to appropriate wells. Incubate 1 hr at room temperature (RT). […] 6. Wash plate 3× with PBS/Tween. […] 7. […] Incubate 1 hr at RT. […] 8. Wash plate 3× with PBS/Tween. […] 9. […] 10. Stop reaction with 50 μl 2N H₂SO₄. […] Read absorbance at 450 nm.

Assay [2] deals with cynomolgous monkey (cyno) IL-17A (cynomolgus monkey, UniProt A0A2K5TTB0 24-155). Description: cell-based or functional assay.
The target of assay [3] is T2, rat IL-17A (rat, UniProt Q61453 18-150, limits assumed).
T2 sequence (looked up): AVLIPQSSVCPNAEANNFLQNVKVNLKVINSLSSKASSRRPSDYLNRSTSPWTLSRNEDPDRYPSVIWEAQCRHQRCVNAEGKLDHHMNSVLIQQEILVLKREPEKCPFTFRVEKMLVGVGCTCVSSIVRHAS
Description: cell-based or functional assay.

In assay [4] the target is T1, human IL-17A. Description: cell-based or functional assay.
Assay [5] concerns the target human IL-17A/F (human, UniProt Q16552 24-155; Q96PD4 31-163). Kind of assay: cell-based or functional assay.
Target sequence in this assay (Q16552 24-155 limits assumed, chain 1 of 2): as the sequence (Q16552 24-155 limits assumed) above
Target sequence in this assay (Q96PD4 31-163 limits assumed, chain 2 of 2): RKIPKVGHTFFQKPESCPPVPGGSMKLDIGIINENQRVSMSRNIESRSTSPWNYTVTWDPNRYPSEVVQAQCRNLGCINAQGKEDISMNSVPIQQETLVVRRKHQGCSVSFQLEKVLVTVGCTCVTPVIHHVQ
The target in a further assay is T3, mouse IL-17A (mouse, UniProt Q62386 26-158, limits assumed).
T3 construct: Purified recombinant protein in SPR; also called MuIL-17A; murine IL-17A
T3 sequence (looked up): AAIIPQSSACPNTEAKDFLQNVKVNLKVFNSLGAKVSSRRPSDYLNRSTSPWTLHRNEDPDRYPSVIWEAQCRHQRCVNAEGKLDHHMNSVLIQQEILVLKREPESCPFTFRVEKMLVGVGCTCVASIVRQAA
Kind of assay: SPR (Biacore 3000), antibody captured by anti-Fc, antigen in solution. (SPR reads the build-up and loss of mass on a sensor chip optically.)

Another assay deals with T4, cynomolgus monkey IL-17A (cynomolgus monkey, UniProt A0A2K5TTB0 24-155).
T4 construct: biotinylated in the ELISA; also called cyno IL-17; Cyno IL-17A
T4 sequence (A0A2K5TTB0 entry or part of it): as the sequence (Q16552 24-155 limits assumed) above, with T3A, P8S, N34S, I77V, N78K, P104R counted along it
The description is as above.

Assay [6] deals with T5, rat IL-17A (rat, UniProt Q61453 18-150, limits assumed).
T5 construct: Purified recombinant protein in SPR
T5 sequence (looked up): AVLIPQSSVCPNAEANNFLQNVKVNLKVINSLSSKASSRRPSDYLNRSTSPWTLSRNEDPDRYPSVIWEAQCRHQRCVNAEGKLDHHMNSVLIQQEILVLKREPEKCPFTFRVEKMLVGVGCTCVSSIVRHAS
The assay is described as above.
Description: (§1) The binding of antibodies to purified recombinant human, cyno, rat, mouse, rabbit IL-17 and human IL-17A/F were determined by surface plasmon resonance-based measurements with a Biacore® 3000 instrument (Biacore® AB, Uppsala, Sweden) using running HBS-EP (10 mM HEPES [pH 7.4], 150 mM NaCl, 3 mM EDTA, and 0.005% surfactant P20) at 25° C. […] Approximately 5000 RU of goat anti-mouse or anti-human IgG (Fcγ) fragment specific polyclonal antibody (Pierce Biotechnology Inc, Rockford, Ill.) diluted in 10 mM sodium acetate (pH 4.5) was directly immobilized across a CM5 research grade biosensor chip using a standard amine coupling kit according to manufacturer's instructions and procedures at 25 μg/ml. Unreacted moieties on the biosensor surface were blocked with ethanolamine. Modified carboxymethyl dextran surface in flowcell 2 and 4 was used as a reaction surface. Unmodified carboxymethyl dextran without goat anti-mouse or anti-human IgG in flow cell 1 and 3 was used as the reference surface. For kinetic analysis, rate equations derived from the 1:1 Langmuir binding model were fitted simultaneously to association and dissociation phases of all eight injections (using global fit analysis) with the use of Biaevaluation 4.0.1 software. Purified antibodies were diluted in HEPES-buffered saline for capture across goat anti-mouse or anti-human IgG specific reaction surfaces. Antibodies to be captured as a ligand (25 μg/ml) were injected over reaction matrices at a flow rate of 5 μl/min. The association and dissociation rate constants, kon (unit M-1s-1) and koff (unit s-1) were determined under a continuous flow rate of 25 μl/min. Rate constants were derived by making kinetic binding measurements at ten different antigen concentrations ranging from 10 nM to 200 nM. The equilibrium dissociation constant (unit M) of the reaction between antibodies and recombinant purified IL-17 antigens was then calculated from the kinetic rate constants by the following formula: KD=koff/kon. Binding was recorded as a function of time and kinetic rate constants are calculated. In this assay, on-rates as fast as 10⁶ M⁻¹ s⁻¹ and off-rates as slow as 10⁻⁶ s⁻¹ can be measured.

The target in assay [7] is T6, human IL-17A/F (human, UniProt Q16552 24-155; Q96PD4 31-163).
T6 construct: Recombinant; biotinylated in the ELISA; also called hIL-17A/F; HuIL-17A/F
The assay is described as above.
T6 sequence (Q16552 24-155, chain 1 of 2): as the sequence (Q16552 24-155 limits assumed) above
T6 sequence (Q96PD4 31-163, chain 2 of 2): as the sequence (Q96PD4 31-163 limits assumed, chain 2 of 2) above
Description: as §1

For assay [8], the target named is T7, human IL-17A (human, UniProt Q16552 24-155).
T7 construct: Recombinant; biotinylated in the ELISA; also called hIL-17; hIL17A
The description is as above.
T7 sequence (Q16552 24-155): as the sequence (Q16552 24-155 limits assumed) above
Description: as §1

The target in assay [9] is T7, human IL-17A. Description: cell-based or functional assay. This is another data set of the same source.
Assay [10] concerns the target T5, rat IL-17A. Kind of assay: cell-based or functional assay. The source holds these as a separate data set.
For assay [11], the target named is T7, human IL-17A. Kind of assay: cell-based or functional assay. The source holds these as a separate data set.

Like-named read-outs stand apart in the source and are kept apart here.

One may read the EC50 as the concentration that produces a half-maximal response. By Kd is commonly meant a measure of binding affinity in units of concentration. Usually koff stands for the first-order rate constant of dissociation. For orientation: kon means a measure of how fast the partners come together.
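Wherever Kd is given: rates obtained by global fitting of a one-to-one Langmuir model over a series of antigen concentrations, Kd derived as koff over kon.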
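Wherever koff is given: rates obtained by global fitting of a one-to-one Langmuir model over a series of antigen concentrations, Kd derived as koff over kon.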
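Wherever kon is given: rates obtained by global fitting of a one-to-one Langmuir model over a series of antigen concentrations, Kd derived as koff over kon.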

Sequence of cynomolgous monkey (cyno) IL-17A (A0A2K5TTB0 entry or part of it): as the sequence (Q16552 24-155 limits assumed) above, with T3A, P8S, N34S, I77V, N78K, P104R counted along it
Description for cynomolgus monkey IL-17A: as §1
Description for mouse IL-17A: as §1

B1: IL17-B6-15 (antibody, V domains shown)
VH: EVQLVQSGAEVKKPGESLKISCKASGGSFSGYGTSWVRQAPGQGLEWMGGITHFFGAVDYAQKFQGRVTITADESTTTAYMELSGLTSDDTAVYYCARDPNEFWNGYYATHDFDYWGQGTTVTVSS
VL: EIVLTQSPDFQSVTPKEKVTITCRASQNIGAELHWYQQKPDQSPKLLIKYASHSISGVPSRFSGSGSGTDFTLTINGLEAEDAGTYYCHQTDRLPYSFGPGTKVDIK
notes: also called pJP245 B6.1 #15VH / pJP246 B6.1 #15Vk
On to B1, for which, in the assay with human IL-17A [1], the concentration giving a half-maximal response (EC50) turned out to be 0.13 nM. Further, the “Potency (pM), IL-17-driven IL-6 production in HS27 cells” value (“Potency (pM) … in HS27 cells” below) in [2] is 10 pM; in the assay with human IL-17A [4], 24 pM; in the assay with human IL-17A/F [5] it was 162 pM. In the assay with rat IL-17A [3], the “Potency (pM), IL-17 and TNF-induced IL-6 secretion from NIH3T3 cells” value was 17 pM.

B2: ML109-10F7 (antibody, V domains shown)
VH: QVQLQQSGAELVRPGTSVTLSCKASGYIFTDYEIHWVKQTPVHGLEWIGVNDPESGGTFYNQKFDGKAELTADKSSSTAYMELRSLTSEDSGVYYCTRYYRYESFYGMDYWGQGTSITVSS
VL: QIVLTQSPAIMSASPGEKVTMTCSASSSISYIYWFQQKPGTSPKRWIYATFELASGVPARFSGSGSGTSYSLTISSMEAEDAATYYCHQRSSYPWTFGGGSKLEIKR
notes: Hybridoma-derived murine mAb; also called 10F7.3D1
As to B2, the Kd with mouse IL-17A was 0.221 nM; with cynomolgus monkey IL-17A, 0.0684 nM; with rat IL-17A [6], 0.197 nM; with human IL-17A/F [7], 0.673 nM; with human IL-17A [8], 0.0626 nM. The koff with mouse IL-17A was found to be 0.000354 s⁻¹; with cynomolgus monkey IL-17A it was 0.000145 s⁻¹; with rat IL-17A [6], 0.000623 s⁻¹; with human IL-17A/F [7], 0.000686 s⁻¹; in the assay with human IL-17A [8], 0.000159 s⁻¹. For the same molecule, the kon worked out at 1.6e+06 M⁻¹ s⁻¹ in the assay with mouse IL-17A; 2.12e+06 M⁻¹ s⁻¹ with cynomolgus monkey IL-17A; 3.17e+06 M⁻¹ s⁻¹ with rat IL-17A [6]; 1.02e+06 M⁻¹ s⁻¹ in the assay with human IL-17A/F [7]; 2.54e+06 M⁻¹ s⁻¹ with human IL-17A [8]. In addition, the “Potency (pM) … in HS27 cells” value in the assay with human IL-17A [9] came to 54 pM.

B3: ML109-6C6 (antibody, V domains shown)
VH: QVQLQQSGAELVRPGASVKLSCKASGYTFSDYEIHWVKQTPVHGLAWIGVIHPGNGGTAYNQKFKDKATLTADKSSSTAYMELSSLTSEDSAVYYCERFLTYEGYFDYWGQGTTLTVSS
VL: SIVMTQTPKFLLVSAGDRVTITCKASQSVNNDVAWYQHKPGQSPKLLINYASNRYTGVPDRFTGSGYGTDFTFTISTVQAEDLAIYFCQQDYGSPYTFGGGTKLEIKR
notes: Hybridoma-derived murine mAb; also called 6C6.3B4
As to B3, the Kd with mouse IL-17A stood at 0.357 nM; in the assay with cynomolgus monkey IL-17A it was 0.0425 nM; with rat IL-17A [6], 0.142 nM; in the assay with human IL-17A/F [7], 0.189 nM; with human IL-17A [8] it was 0.0187 nM. Also, the koff is 0.00087 s⁻¹ in the assay with mouse IL-17A; 0.000116 s⁻¹ in the assay with cynomolgus monkey IL-17A; 0.000704 s⁻¹ with rat IL-17A [6]; 0.000366 s⁻¹ in the assay with human IL-17A/F [7]; 6.78e-05 s⁻¹ in the assay with human IL-17A [8]. The kon worked out at 2.44e+06 M⁻¹ s⁻¹ with mouse IL-17A; 2.73e+06 M⁻¹ s⁻¹ in the assay with cynomolgus monkey IL-17A; 4.95e+06 M⁻¹ s⁻¹ with rat IL-17A [6]; 1.94e+06 M⁻¹ s⁻¹ in the assay with human IL-17A/F [7]; 3.63e+06 M⁻¹ s⁻¹ with human IL-17A [8]. Besides, the “Potency (pM) … in HS27 cells” value in the assay with human IL-17A [9] came to 36 pM.

B4: m5C5.hIgG1 (antibody, V domains shown)
VH: QVQLQQSGAELVRPGASVKLSCKALGYTFTDYEFHWVKQTPVHGLEWIGVIHPGNGGTAYNQNFRDKATLTADKSSSTAYMELSSLTSEDSGVYYCTRFLTYEGYFDYWGQGTALTVSS
VL: NIVMTQTPKFLLVSPGDRVTITCKASQSVSIDVGWFQQKPGQSPKLLIYHASNRYTGVPDRFTGSGYGTDFTFTVNTVQAEDLAVYFCQQDYSSPYTFGGGTKLELKR
For the molecule B4, the “Potency (pM), IL-17 and TNF-alpha-driven IL-6 production in NIH3T3 cells” value in the assay with rat IL-17A [10] was found to be 4910 pM. Further, the “Potency (pM) … in HS27 cells” value in the assay with human IL-17A [11] was 11 pM.

Values taken from patent US20140348834A1 (published 2014).
